In PMC6070508:

Experiments:
[1] = molecular target: 1:1 8D6 Fab/IgE-Fc complex; assay: SPR; IgE-Fc captured on an 8D6 Fab surface (1:1 8D6 Fab/IgE-Fc complex); derCD23 injected at 10 to 0.156 uM; HBS-P with 5 mM CaCl2, 25 °C
[2] = molecular target: 2:1 8D6 Fab/IgE-Fc complex; assay: SPR; IgE-Fc captured on an 8D6 Fab surface, then saturated with 100 nM 8D6 Fab (2:1 8D6 Fab/IgE-Fc complex); derCD23 injected at 10 to 0.156 uM; HBS-P with 5 mM CaCl2, 25 °C
Sequence of 2:1 8D6 Fab/IgE-Fc complex (heavy, as listed by the source, chain 1 of 2): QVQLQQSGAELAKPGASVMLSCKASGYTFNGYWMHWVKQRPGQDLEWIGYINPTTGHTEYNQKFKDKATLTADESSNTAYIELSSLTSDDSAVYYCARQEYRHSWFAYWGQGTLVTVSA
Sequence of 2:1 8D6 Fab/IgE-Fc complex (light, as listed by the source, chain 2 of 2): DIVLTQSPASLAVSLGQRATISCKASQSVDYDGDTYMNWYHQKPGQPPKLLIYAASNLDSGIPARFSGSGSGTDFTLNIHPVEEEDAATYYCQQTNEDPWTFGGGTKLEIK

Sequence of 1:1 8D6 Fab/IgE-Fc complex (heavy, as listed by the source, chain 1 of 2): as the sequence (heavy, as listed by the source, chain 1 of 2) above
Sequence of 1:1 8D6 Fab/IgE-Fc complex (light, as listed by the source, chain 2 of 2): as the sequence (light, as listed by the source, chain 2 of 2) above

Kd [1]: 1700 nM
Kd [2]: 1700 nM
Substance: derCD23 (domain or fragment)
